Non-standard residues stand in square brackets, D forms with d. No end group written: not given here.
Tests used:
[1] = target: T1, mouse delta opioid receptor (mORD1) (mouse), P32300; assay: radioligand binding, COS-7 membranes
T1 chain: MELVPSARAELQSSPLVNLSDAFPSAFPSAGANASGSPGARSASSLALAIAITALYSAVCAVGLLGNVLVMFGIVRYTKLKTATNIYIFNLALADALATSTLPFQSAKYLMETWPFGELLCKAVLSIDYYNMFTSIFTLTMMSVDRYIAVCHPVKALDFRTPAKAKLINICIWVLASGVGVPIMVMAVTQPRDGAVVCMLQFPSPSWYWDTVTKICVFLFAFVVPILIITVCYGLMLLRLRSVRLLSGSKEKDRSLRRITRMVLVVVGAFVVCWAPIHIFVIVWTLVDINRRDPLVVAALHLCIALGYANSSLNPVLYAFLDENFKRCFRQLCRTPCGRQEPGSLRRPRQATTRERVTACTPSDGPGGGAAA

[2] = target: cloned human µ opioid receptor (human), P35372; assay: saturation binding, Scatchard analysis, COS-7 membranes
[3] = target: T2, rat µ opioid receptor (rat), P33535; assay: competition vs [3H]DAMGO, COS-7 membranes
T2 chain: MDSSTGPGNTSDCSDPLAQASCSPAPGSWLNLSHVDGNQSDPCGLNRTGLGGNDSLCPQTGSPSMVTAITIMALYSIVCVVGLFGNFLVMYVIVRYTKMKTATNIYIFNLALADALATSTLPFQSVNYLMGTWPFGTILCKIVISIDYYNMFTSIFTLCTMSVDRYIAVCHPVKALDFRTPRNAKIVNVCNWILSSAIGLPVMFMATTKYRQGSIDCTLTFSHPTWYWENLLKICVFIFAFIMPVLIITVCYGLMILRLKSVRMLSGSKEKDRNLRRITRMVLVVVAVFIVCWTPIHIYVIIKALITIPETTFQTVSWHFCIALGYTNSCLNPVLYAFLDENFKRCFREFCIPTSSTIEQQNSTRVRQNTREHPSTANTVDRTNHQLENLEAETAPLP

[4] = target: T2, rat µ opioid receptor (rat), P33535; assay: saturation binding, COS-7 membranes
[5] = target: T1, mouse delta opioid receptor (mORD1) …; assay: competition vs [3H]naltrindole, CHO-DG44 membranes
[6] = target: T1, mouse delta opioid receptor (mORD1) …; assay: competition vs [3H]naltrindole, COS-1 membranes
[7] = target: T1, mouse delta opioid receptor (mORD1) …; assay: cell-based or functional assay
[8] = target: T3, D128N mutant mouse delta opioid receptor (mouse), P32300; assay: cell-based or functional assay
T3 chain: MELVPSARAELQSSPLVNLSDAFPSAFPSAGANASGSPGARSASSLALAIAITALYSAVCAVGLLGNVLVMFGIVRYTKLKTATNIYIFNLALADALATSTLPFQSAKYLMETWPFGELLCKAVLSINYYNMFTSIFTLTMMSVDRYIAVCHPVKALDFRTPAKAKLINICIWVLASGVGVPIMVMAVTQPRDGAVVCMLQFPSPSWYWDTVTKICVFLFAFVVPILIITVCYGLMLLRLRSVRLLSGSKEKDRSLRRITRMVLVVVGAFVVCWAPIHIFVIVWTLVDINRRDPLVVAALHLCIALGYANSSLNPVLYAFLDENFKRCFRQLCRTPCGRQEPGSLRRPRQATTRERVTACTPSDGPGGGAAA

[9] = target: T4, H278N mutant mouse delta opioid receptor (mouse), P32300; assay: competition vs 3H-naltrindole, COS-7 membranes
T4 chain: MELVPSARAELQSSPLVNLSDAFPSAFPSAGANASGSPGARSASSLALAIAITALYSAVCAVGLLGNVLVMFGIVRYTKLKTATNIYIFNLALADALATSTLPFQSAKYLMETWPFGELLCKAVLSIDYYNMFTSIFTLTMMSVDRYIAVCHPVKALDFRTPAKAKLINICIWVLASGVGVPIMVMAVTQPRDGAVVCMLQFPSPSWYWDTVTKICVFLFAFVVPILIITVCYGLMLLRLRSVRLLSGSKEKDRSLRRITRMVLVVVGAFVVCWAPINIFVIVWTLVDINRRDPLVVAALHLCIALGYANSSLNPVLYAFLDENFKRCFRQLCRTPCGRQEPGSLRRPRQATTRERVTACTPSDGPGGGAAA

[10] = target: T5, κ1-78/δ70-372 chimeric opioid receptor (mouse); assay: competition vs [3H]DPDPE, COS-7 membranes
T5 chain: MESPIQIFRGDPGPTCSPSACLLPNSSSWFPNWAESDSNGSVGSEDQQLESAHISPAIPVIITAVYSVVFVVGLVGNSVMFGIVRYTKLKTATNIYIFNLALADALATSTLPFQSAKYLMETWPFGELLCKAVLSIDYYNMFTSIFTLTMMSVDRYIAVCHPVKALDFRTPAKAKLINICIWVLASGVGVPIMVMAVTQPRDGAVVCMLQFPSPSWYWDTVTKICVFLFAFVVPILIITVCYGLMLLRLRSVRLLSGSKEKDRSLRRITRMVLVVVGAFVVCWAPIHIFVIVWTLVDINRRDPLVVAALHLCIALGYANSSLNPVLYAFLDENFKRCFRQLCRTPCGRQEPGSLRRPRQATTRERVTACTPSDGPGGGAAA

cloned human µ opioid receptor (human), P35372, sequence (P35372 whole entry): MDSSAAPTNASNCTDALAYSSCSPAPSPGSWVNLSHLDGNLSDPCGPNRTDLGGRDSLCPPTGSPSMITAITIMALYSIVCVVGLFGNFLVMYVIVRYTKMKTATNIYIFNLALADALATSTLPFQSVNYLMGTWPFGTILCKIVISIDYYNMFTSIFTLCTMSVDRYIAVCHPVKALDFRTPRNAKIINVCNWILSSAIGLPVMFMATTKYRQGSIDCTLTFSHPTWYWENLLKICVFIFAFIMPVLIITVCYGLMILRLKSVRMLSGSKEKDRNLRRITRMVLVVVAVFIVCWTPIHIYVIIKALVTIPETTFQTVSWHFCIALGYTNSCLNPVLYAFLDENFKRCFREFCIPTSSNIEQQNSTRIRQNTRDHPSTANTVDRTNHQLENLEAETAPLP

B1: [D-Pen2, D-Pen5]enkephalin (DPDPE) (peptide)
chain: YCGFC
modifications: not checked
Question: With B1 as the binder, how does the average binding (fmol/mg protein) [1] read?
Answer: The average binding (fmol/mg protein) was 1990.

B2: [D-Ala2,MePhe4,Gly-ol5]enkephalin (DAMGO) (peptide)
chain: YAGFG
modifications: not checked
Question: Which Kd [2] does the source give for B2 here?
Answer: The Kd was 1 nM.

Question: What about the Ki [3] of the same binder?
Answer: The Ki was 2 nM.

Question: And the Kd [4]?
Answer: Its Kd is 0.57 nM.

B3: DADL (peptide)
chain: YAGFL
modifications: not checked
Question: What does the source list for B3?
Answer: Ki [5]: 0.74 nM; Ki [3]: 16 nM; IC50 [6]: 20 nM

B4: [D-Ser2, Leu5] enkephalin-Thr6 (DSLET) (peptide)
chain: Y[dS]GFLT
Question: B4 was tested. Which inhibition of forskolin-stimulated cAMP formation [7] did it give?
Answer: The inhibition of forskolin-stimulated cAMP formation was 70%.

Question: What about the EC50 to inhibit forskolin-stimulated cAMP accumulation [8] of the same binder?
Answer: Its EC50 to inhibit forskolin-stimulated cAMP accumulation is 30 nM.

Question: And the Ki [9]?
Answer: Its Ki is 0.5 nM.

Question: What about the IC50 [10] of the same binder?
Answer: The IC50 was 2 nM.

— patent US20030211537A1
